# According to US20190231706A1, “SURFACTANT PEPTIDE NANOSTRUCTURES AND USES IN DRUG DELIVERY” (3-D Matrix, Ltd., priority 2017, published 2019):
# Like-named read-outs stand apart in the source and are kept apart here. Where a SMILES comes first, the peptide text is derived from it.
# How the values were obtained:
# [1] = AFM imaging of peptide and peptide/siRNA nanostructure; format: physicochemical; settings: for Diameter of the nanospheres / Nanostructure of peptide: peptide alone
# Text: Nanostructure plays an important role in formulation of agents (e.g., therapeutics, such as siRNA).
# MCF-7 cell = assay: Cell toxicity, luciferase emission with peptides only or peptides/negative control siRNA; format: cell-based
# Text: siRNA (Luciferase GL3 duplex) was complexed with Ac-A4K-NH2 (SEQ ID NO: 55), Ac-A3KA3-NH2 (SEQ ID NO:55), Ac-A6K-NH2 (SEQ ID NO: 105), and a control agent (DharmaFECT 1; commercially available lipid transfection agent). The siRNA and peptide complexes arranged into nanospherical structures. A composition comprising the nanospherical structures was provided to tumor cells (MCF-7 cell; breast cancer cell line) in vitro to preliminary transfection efficacy and cell toxicity. Two methods were utilized for the present Example. For Method 1, MCF-7 cells were cultured on a plate. The siRNA and peptide complexes were added into the culture medium over the cells. The culture dish (96 wells) containing the siRNA and peptide complexes and the cells was incubated for 48 hours. For Method 2, a concentrated suspension of MCF-7 cells (5×10^6 cells/ml) was prepared in a tube. The siRNA and peptide complexes were applied into the suspension. The cell mixture was incubated for 1 hour in the tube. The cell mixture was plated in the culture dish and incubated for 48 hours. Luciferase emission from each sample was observed. Table 4 summarizes experimental conditions e.g., concentration of siRNA and peptide surfactants, charge ratio, and types of siRNA (e.g., Luciferase GL3 duplex or negative control thereof). The buffer used in this Example was Opti-MEM1 (serum-free). As control samples, buffer only, negative control (NC) siRNA with or without the peptide surfactants, DharmaFECT 1 with or without siRNA (or NC siRNA) were tested with the cells. Cell toxicity.
# mouse tumor model = assay: Delivery of siRNA to tumor cells in vivo; settings: siRNA/peptide complex administered to mouse tumor model
# Protocol: The present Example describes, among other things, an exemplary use of surfactant peptides for delivery of siRNA to tumor cells in vivo. siRNA is complexed with Ac-A4K-NH2 (SEQ ID NO: 55), Ac-A3KA3-NH2 (SEQ ID NO:55), Ac-A6K-NH2 (SEQ ID NO: 105), or a control peptide. The siRNA and peptide complexes arrange into nanospherical structures. A composition comprising the nanospherical structures is administered to a mouse tumor model. One or more cancer associated genes is suppressed and the size of the tumor decreases.
# [2] = Zeta potential by Zetasizer Nano ZS; format: physicochemical; settings: 0.5 w/v % in an aqueous solution; in mV (unit assumed)
# Protocol: Zeta potentials were measured by Zetasizer Nano ZS (Malvern) to characterize electrokinetic potential of the complex. Ac-A4K-NH2 (SEQ ID NO:55) concentration was 0.5 w/v % in an aqueous solution. siRNA (ribophorin II, RPN2) concentration was controlled for their various charge ratios of A4K/siRNA. The zeta potential of Ac-A4K-NH2 (SEQ ID NO:55) alone was +21.9, which represents that the surface of A4K nanosphere was positively charged because of the primary amine of lysine in Ac-A4K-NH2 (SEQ ID NO:55). As the equipment only detects dispersed phases larger than about 3.8 nm and the size of siRNA in water is about 2 nm in diameter, the measurement only reads the electrokinetic potential of Ac-A4K-NH2 (SEQ ID NO:55) or Ac-A4K-NH2 (SEQ ID NO:55)/siRNA complexes, not unassociated siRNA.
# [3] = Transmittance study of surfactant peptides and peptide/siRNA complexes in aqueous solution; format: physicochemical; settings: for Transmittance (%) With siRNA (peptide %/siRNA %) 0.1%/0.01%: peptide 0.1%/siRNA 0.01%; for Transmittance (%) With siRNA (peptide %/siRNA %) 0.1%/0.01% / Transmittance (%) With siRNA (peptide %/siRNA %) 0.5%/0.05% / Transmittance (%) Peptide alone 0.1% (w/v) / Transmittance (%) Peptide alone 0.5% (w/v): aqueous solution pH 7.5; for Transmittance (%) With siRNA (peptide %/siRNA %) 0.1%/0.01% / Transmittance (%) With siRNA (peptide %/siRNA %) 0.5%/0.05%: * = significantly cloudy and phase-separated; for Transmittance (%) With siRNA (peptide %/siRNA %) 0.5%/0.05%: peptide 0.5%/siRNA 0.05%; for Appearance of peptide mixed with siRNA in transmittance study: peptide 0.1% and 0.5% (w/v) with siRNA 0.01% and 0.05% (w/v), pH 7.5
# [4] = literature reports; cited from earlier work
# [5] = MCF-7, peptide only or with NC siRNA, 48 hours, Methods 1 and 2
Diameter of the nanospheres [1],Zeta potential of peptide alone [2],Thickness of each layer of double layer structure ([1]; 0.1% (w/v)),Compound,Nanostructure of peptide [1],Cell toxicity (decrease in luciferase emission) compared with DharmaFECT (MCF-7 cell),Cancer associated gene expression (mouse tumor model),Size of the tumor (mouse tumor model),Cell toxicity (decrease in luciferase emission) compared with DharmaFECT (MCF-7 cell; [5]),Transmittance (%) With siRNA (peptide %/siRNA %) 0.1%/0.01% [3],Transmittance (%) With siRNA (peptide %/siRNA %) 0.5%/0.05% [3],Transmittance (%) Peptide alone 0.1% (w/v) [3],Transmittance (%) Peptide alone 0.5% (w/v) [3],Appearance of peptide mixed with siRNA in transmittance study [3],Nanostructure / self-assembly (previously reported) [4]
30 nm,,,"CC(=O)N[C@@H](C)C(=O)N[C@@H](C)C(=O)N[C@@H](C)C(=O)N[C@@H](CCCCN)C(=O)N[C@@H](C)C(=O)N[C@@H](C)C(=O)N[C@@H](C)C(N)=O [Ac-A3KA3-NH2, Ac-AAAKAAA-NH2] (Ac-AAAKAAA-NH2)","nanospheres (i.e., spherical nanovesicles)",less toxic than DharmaFECT,suppressed,decreases,,,,,,,
85 nm,+21.9,,"CC(=O)N[C@@H](C)C(=O)N[C@@H](C)C(=O)N[C@@H](C)C(=O)N[C@@H](C)C(=O)N[C@@H](CCCCN)C(N)=O [Ac-A4K-NH2, Ac-AAAAK-NH2] (Ac-AAAAK-NH2)","nanospheres (i.e., spherical nanovesicles)",,suppressed,decreases,less toxic than DharmaFECT,,,,,,
,,0.8 nm,"CC(=O)N[C@@H](C)C(=O)N[C@@H](C)C(=O)N[C@@H](C)C(=O)N[C@@H](C)C(=O)N[C@@H](C)C(=O)N[C@@H](C)C(=O)N[C@@H](CCCCN)C(N)=O [Ac-A6K-NH2, reference compound] (Ac-AAAAAAK-NH2)",,,suppressed,decreases,less toxic than DharmaFECT,,,,,,
,,,A6K2A6: exemplary conventional self-assembling peptide for comparison (AAAAAAKKAAAAAA) [reference compound],,,,,,62.9* %,12.7* %,98.5%,83.1%,,
,,,"AAAAAAK [A6K, reference compound]",,,,,,38.4* %,15.3* %,94.8%,98.7%,cloudy and phase separated,nanotubes
,,,"AAAAAK [A5K, exemplary conventional self-assembling peptide for comparison, reference compound]",,,,,,95.5%,22.7* %,99.2%,71.9%,cloudy and phase separated,
,,,AAAAK [A4K],nanospheric structures (spherical nanovesicles),,,,,98.7%,97.5%,99.4%,97.8%,transparent and substantially without phase separation,does not exhibit relevant self-assembly in water
,,,AAAK [A3K],nanospheric structures,,,,,81.1%,77.3%,96.2%,99.6%,transparent and substantially without phase separation,
,,,AAAKAAA [A3KA3],nanospheric structures (spherical nanovesicles),,,,,98.7%,88.2%,99.2%,97.5%,transparent and substantially without phase separation,

Compound,Diameter of the nanospheres [1],Zeta potential of peptide alone [2],Thickness of each layer of double layer structure ([1]; 0.1% (w/v)),Nanostructure of peptide [1],Cell toxicity (decrease in luciferase emission) compared with DharmaFECT (MCF-7 cell),Cancer associated gene expression (mouse tumor model),Size of the tumor (mouse tumor model),Cell toxicity (decrease in luciferase emission) compared with DharmaFECT (MCF-7 cell; [5]),Transmittance (%) With siRNA (peptide %/siRNA %) 0.1%/0.01% [3],Transmittance (%) With siRNA (peptide %/siRNA %) 0.5%/0.05% [3],Transmittance (%) Peptide alone 0.1% (w/v) [3],Transmittance (%) Peptide alone 0.5% (w/v) [3],Appearance of peptide mixed with siRNA in transmittance study [3],Nanostructure / self-assembly (previously reported) [4]
Ac-AAAK-NH2 [Ac-A3K-NH2],28 nm,,,nanospheres,,,,,,,,,,
